Source: US20200024322A1 (Eli Lilly, published 2020)
Substitutions are numbered along the chain they refer to. Numbered stars: 1 amine (or outer) side, 2 acyl side, 3 side chain; on linkers, the order of the positions; unused ones are H or OH. Square brackets hold non-standard residues; d marks the D form. Side chains are listed from the residue outwards. Ends that are not written are not given here. * marks the point of attachment. C20 diacid = O=C(O)CCCCCCCCCCCCCCCCCCC(=O)*; γGlu = O=C(O)[C@H](CCC(=O)[*:2])N[*:1]; αMeL = CC(C)C[C@](C)(N)C(=O)O; AEEA = NCCOCCOCC(=O)O; Aib = CC(C)(N)C(=O)O

T1: human GIP receptor (human, UniProt P48546 22-466)
T1 construct: whole, on cells; Used as crude membranes of stably transfected CHO cells; also called hGIPR
T1 sequence (looked up): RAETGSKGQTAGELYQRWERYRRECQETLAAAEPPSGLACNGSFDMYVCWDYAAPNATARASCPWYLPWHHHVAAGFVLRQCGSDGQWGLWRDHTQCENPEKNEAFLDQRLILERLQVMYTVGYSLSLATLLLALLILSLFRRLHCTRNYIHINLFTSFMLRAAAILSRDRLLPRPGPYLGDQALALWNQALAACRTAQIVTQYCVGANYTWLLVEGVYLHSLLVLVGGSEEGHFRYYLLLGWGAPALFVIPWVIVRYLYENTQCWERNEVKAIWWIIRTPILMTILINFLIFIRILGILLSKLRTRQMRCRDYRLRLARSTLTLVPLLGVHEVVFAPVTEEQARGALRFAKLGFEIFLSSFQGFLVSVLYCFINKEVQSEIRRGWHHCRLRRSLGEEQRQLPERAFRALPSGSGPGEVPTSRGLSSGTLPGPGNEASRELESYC

B1: Example 86 (peptide)
peptide: Y[Aib]EGTFTSDYSILLDKK([AEEA-AEEA-γGlu-C20 diacid])AQ[Aib]AFIEYLIEAGPSSGAPPPS-NH2
modifications: N-terminus assumed
SMILES: CC[C@H](C)[C@H](NC(=O)[C@H](CC(C)C)NC(=O)[C@H](Cc1ccc(O)cc1)NC(=O)[C@H](CCC(=O)O)NC(=O)[C@@H](NC(=O)[C@H](Cc1ccccc1)NC(=O)[C@H](C)NC(=O)C(C)(C)NC(=O)[C@H](CCC(N)=O)NC(=O)[C@H](C)NC(=O)[C@H](CCCCNC(=O)COCCOCCNC(=O)COCCOCCNC(=O)CC[C@H](NC(=O)CCCCCCCCCCCCCCCCCCC(=O)O)C(=O)O)NC(=O)[C@H](CCCCN)NC(=O)[C@H](CC(=O)O)NC(=O)[C@H](CC(C)C)NC(=O)[C@H](CC(C)C)NC(=O)[C@@H](NC(=O)[C@H](CO)NC(=O)[C@H](Cc1ccc(O)cc1)NC(=O)[C@H](CC(=O)O)NC(=O)[C@H](CO)NC(=O)[C@@H](NC(=O)[C@H](Cc1ccccc1)NC(=O)[C@@H](NC(=O)CNC(=O)[C@H](CCC(=O)O)NC(=O)C(C)(C)NC(=O)[C@@H](N)Cc1ccc(O)cc1)[C@@H](C)O)[C@@H](C)O)[C@@H](C)CC)[C@@H](C)CC)C(=O)N[C@@H](CCC(=O)O)C(=O)N[C@@H](C)C(=O)NCC(=O)N1CCC[C@H]1C(=O)N[C@@H](CO)C(=O)N[C@@H](CO)C(=O)NCC(=O)N[C@@H](C)C(=O)N1CCC[C@H]1C(=O)N1CCC[C@H]1C(=O)N1CCC[C@H]1C(=O)N[C@@H](CO)C(N)=O
B2: Example 192 (peptide)
peptide: YXEGTXTSDASIXLDEKAQXEFIXYLIEGGPSSGAPPPS
modifications: Aib2; αMeF(2F)6; αMeL13; K17((2-[2-(2-Amino-ethoxy)-ethoxy]-acetyl)2-(γ-Glu)-CO-(CH2)18-CO2H); Aib20; D-Glu24; C-terminal NH2
B3: Example 52 (peptide)
peptide: YXEGTFTSDYSIXLDSKAQXAFIEYLIEGGPSSGAPPPS
modifications: Aib2; αMeL13; K17((2-[2-(2-Amino-ethoxy)-ethoxy]-acetyl)2-(γ-Glu)-CO-(CH2)18-CO2H); Aib20; C-terminal NH2
B4: Example 55 (peptide)
peptide: H[Aib]EGTFTSDYSI[αMeL]LDEK([AEEA-AEEA-γGlu-C20 diacid])AQHAFIEYLIEGGPSSGAPPPS-NH2
modifications: N-terminus assumed
SMILES: CC[C@H](C)[C@H](NC(=O)[C@H](CC(C)C)NC(=O)[C@H](Cc1ccc(O)cc1)NC(=O)[C@H](CCC(=O)O)NC(=O)[C@@H](NC(=O)[C@H](Cc1ccccc1)NC(=O)[C@H](C)NC(=O)[C@H](Cc1c[nH]cn1)NC(=O)[C@H](CCC(N)=O)NC(=O)[C@H](C)NC(=O)[C@H](CCCCNC(=O)COCCOCCNC(=O)COCCOCCNC(=O)CC[C@H](NC(=O)CCCCCCCCCCCCCCCCCCC(=O)O)C(=O)O)NC(=O)[C@H](CCC(=O)O)NC(=O)[C@H](CC(=O)O)NC(=O)[C@H](CC(C)C)NC(=O)[C@](C)(CC(C)C)NC(=O)[C@@H](NC(=O)[C@H](CO)NC(=O)[C@H](Cc1ccc(O)cc1)NC(=O)[C@H](CC(=O)O)NC(=O)[C@H](CO)NC(=O)[C@@H](NC(=O)[C@H](Cc1ccccc1)NC(=O)[C@@H](NC(=O)CNC(=O)[C@H](CCC(=O)O)NC(=O)C(C)(C)NC(=O)[C@@H](N)Cc1c[nH]cn1)[C@@H](C)O)[C@@H](C)O)[C@@H](C)CC)[C@@H](C)CC)C(=O)N[C@@H](CCC(=O)O)C(=O)NCC(=O)NCC(=O)N1CCC[C@H]1C(=O)N[C@@H](CO)C(=O)N[C@@H](CO)C(=O)NCC(=O)N[C@@H](C)C(=O)N1CCC[C@H]1C(=O)N1CCC[C@H]1C(=O)N1CCC[C@H]1C(=O)N[C@@H](CO)C(N)=O
B5: Example 56 (peptide)
peptide: Y[Aib]EGTFTSDYSI[αMeL]LDEK([AEEA-AEEA-γGlu-C20 diacid])AQHAFIEYLIEGGPSSGAPPPS-NH2
modifications: N-terminus assumed
SMILES: CC[C@H](C)[C@H](NC(=O)[C@H](CC(C)C)NC(=O)[C@H](Cc1ccc(O)cc1)NC(=O)[C@H](CCC(=O)O)NC(=O)[C@@H](NC(=O)[C@H](Cc1ccccc1)NC(=O)[C@H](C)NC(=O)[C@H](Cc1c[nH]cn1)NC(=O)[C@H](CCC(N)=O)NC(=O)[C@H](C)NC(=O)[C@H](CCCCNC(=O)COCCOCCNC(=O)COCCOCCNC(=O)CC[C@H](NC(=O)CCCCCCCCCCCCCCCCCCC(=O)O)C(=O)O)NC(=O)[C@H](CCC(=O)O)NC(=O)[C@H](CC(=O)O)NC(=O)[C@H](CC(C)C)NC(=O)[C@](C)(CC(C)C)NC(=O)[C@@H](NC(=O)[C@H](CO)NC(=O)[C@H](Cc1ccc(O)cc1)NC(=O)[C@H](CC(=O)O)NC(=O)[C@H](CO)NC(=O)[C@@H](NC(=O)[C@H](Cc1ccccc1)NC(=O)[C@@H](NC(=O)CNC(=O)[C@H](CCC(=O)O)NC(=O)C(C)(C)NC(=O)[C@@H](N)Cc1ccc(O)cc1)[C@@H](C)O)[C@@H](C)O)[C@@H](C)CC)[C@@H](C)CC)C(=O)N[C@@H](CCC(=O)O)C(=O)NCC(=O)NCC(=O)N1CCC[C@H]1C(=O)N[C@@H](CO)C(=O)N[C@@H](CO)C(=O)NCC(=O)N[C@@H](C)C(=O)N1CCC[C@H]1C(=O)N1CCC[C@H]1C(=O)N1CCC[C@H]1C(=O)N[C@@H](CO)C(N)=O
B6: Example 130 (peptide)
peptide: B3 peptide with F6X, Y10E, X13L, S16K
modifications: Aib2; αMeF6; K17((2-[2-(2-Amino-ethoxy)-ethoxy]-acetyl)2-(γ-Glu)-CO-(CH2)18-CO2H); Aib20; C-terminal NH2
B7: Example 82 (peptide)
peptide: B3 peptide with I12X, X13L, S16K
modifications: Aib2; D-Ile12; K17((2-[2-(2-Amino-ethoxy)-ethoxy]-acetyl)2-(γ-Glu)-CO-(CH2)18-CO2H); Aib20; C-terminal NH2
B8: Example 84 (peptide)
peptide: B3 peptide with X13L, S16K, E24X
modifications: Aib2; K17((2-[2-(2-Amino-ethoxy)-ethoxy]-acetyl)2-(γ-Glu)-CO-(CH2)18-CO2H); Aib20; D-Glu24; C-terminal NH2
B9: Example 160 (peptide)
peptide: B2 peptide with A10X, E21T
modifications: Aib2; αMeF(2F)6; Aib10; αMeL13; K17((2-[2-(2-Amino-ethoxy)-ethoxy]-acetyl)2-(γ-Glu)-CO-(CH2)18-CO2H); Aib20; D-Glu24; C-terminal NH2
B10: Example 208 (peptide)
peptide: B2 peptide with A10Y
modifications: Aib2; αMeF(2F)6; αMeL13; K17((2-[2-(2-Amino-ethoxy)-ethoxy]-acetyl)2-(γ-Glu)-CO-(CH2)14-CO2H); Aib20; D-Glu24; C-terminal NH2
B11: Example 209 (peptide)
peptide: B2 peptide with A10Y, E16X
modifications: Aib2; αMeF(2F)6; αMeL13; Dab16; K17((2-[2-(2-Amino-ethoxy)-ethoxy]-acetyl)2-(γ-Glu)-CO-(CH2)16-CO2H); Aib20; D-Glu24; C-terminal NH2
B12: Example 210 (peptide)
peptide: B2 peptide with A10Y, E16X
modifications: Aib2; αMeF(2F)6; αMeL13; Dap16; K17((2-[2-(2-Amino-ethoxy)-ethoxy]-acetyl)2-(γ-Glu)-CO-(CH2)16-CO2H); Aib20; D-Glu24; C-terminal NH2

Assays:
human GLP-1 receptor = target: T2, human GLP-1 receptor (human, UniProt P43220 24-463); test: SPA, [125I]-GLP-1 displacement, hGLP-1R membranes
T2 construct: whole, on cells; Used as crude membranes of stably transfected HEK293 cells; also called hGLP1R; hGLP-1R

human GIP receptor = target: T1, human GIP receptor; test: SPA, [125I]-GIP displacement, hGIPR membranes

| Binder | Ki (human GLP-1 receptor) [nM] | Ki (human GIP receptor) [nM] |
| --- | --- | --- |
| B1 | 3.74 | 0.0401 |
| B2 | 2.89 | 0.118 |
| B3 | 5.81 | 0.0342 |
| B4 | 7.29 | 6.24 |
| B5 | 10.3 | 0.148 |
| B6 | 3.66 | 0.177 |
| B7 | 6.82 | 14.9 |
| B8 | 10.2 | 0.143 |
| B9 | 14.4 | 5.98 |
| B10 | 2.13 | 0.0537 |
| B11 | 1.43 | 0.0664 |
| B12 | 1.58 | 0.0399 |
